# T1: CHO human PlGF-1 comprising amino acids 1-137 (human PlGF-1-His (1-131), CHO 6305) (human, UniProt P49763 19-221, N-glycans at N21 (completely glycosylated) and N89 (partially glycosylated))
# T1 construct: Mature human PlGF-1 with 6xHis tag (137 amino acids); also called CHO (1-137)
# T1 sequence: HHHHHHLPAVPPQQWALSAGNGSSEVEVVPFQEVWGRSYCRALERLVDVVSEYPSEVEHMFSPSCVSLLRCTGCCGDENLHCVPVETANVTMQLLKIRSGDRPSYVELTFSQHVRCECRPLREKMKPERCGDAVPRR
# T2: CHO human PlGF-1 fragment (comprising amino acids 17-131; ATCC PTA-8540) (human, UniProt P49763 35-221)
# T2 sequence: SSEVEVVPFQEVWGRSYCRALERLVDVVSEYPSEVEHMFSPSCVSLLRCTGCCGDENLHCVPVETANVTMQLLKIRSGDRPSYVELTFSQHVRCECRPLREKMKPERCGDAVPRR
# T3: human PlGF-1 comprising amino acids 1-137 produced in human embryonic kidney cells (human, UniProt P49763 19-221)
# T3 construct: Mature human PlGF-1 with 6xHis tag; also called HEK (1-137); full length HEK human PlGF-1 (1-137)
# T3 sequence: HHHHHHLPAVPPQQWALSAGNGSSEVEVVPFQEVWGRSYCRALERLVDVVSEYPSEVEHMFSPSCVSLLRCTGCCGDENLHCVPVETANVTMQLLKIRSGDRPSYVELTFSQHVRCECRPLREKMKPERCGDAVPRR
# T4: human PlGF-1 fragment (comprising amino acids 17-131) produced in human embryonic kidney cells (human, UniProt P49763 35-221)
# T4 sequence: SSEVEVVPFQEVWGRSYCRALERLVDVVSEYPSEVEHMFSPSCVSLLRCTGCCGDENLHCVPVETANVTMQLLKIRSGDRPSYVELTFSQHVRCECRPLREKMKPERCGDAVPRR
# B1: monoclonal antibody 1-255-713 (produced by murine hybridoma cell line 1-255-713, ATCC PTA-8536) (antibody, mouse IgG2a, V domains shown)
# VH: QVHLQQSGAELMKPGASVKISCKATGYTFSSYWIEWVKQRPGHGLEWIGEILPGSVSNNFNEKFKDKATLTADPSSNTAYIQVSSLTSEDSAVYYCARSTGFYYGGNYFDHWGQGTTLAVSS
# VL: DVVMTQTPLSLPVSPGDQASISCRSSQSLVHSNGHTYLHWYLQKPGQSPKLLIYKVSNRFSGVPDRVSGSGSGTDFTLKISRVEAEDLGVYFCSQSTHVPPTFGGGTKLEIKR
# notes: also called MAb255
# How the values were obtained:
# [1] = biological target: human PlGF-1 comprising amino acids 1-137 produced in human embryonic kidney cells (human) (UniProt P49763); assay: Format 3 Quantikine ELISA, capture MAb264, detection Pb264; sFlt-1 3067 pmol/L (ratio 100)
# [2] = biological target: human PlGF-1 comprising amino acids 1-137 produced in human embryonic kidney cells (human) (UniProt P49763); assay: Format 1 …, capture 2-826-335, detection 1-255-713; sFlt-1 3067 pmol/L (ratio 100)
# [3] = biological target: human PlGF-1 comprising amino acids 1-137 produced in human embryonic kidney cells (human) (UniProt P49763); assay: Format 3 Quantikine ELISA, capture MAb264, detection Pb264; sFlt-1 9200 pmol/L (ratio 300)
# [4] = biological target: human PlGF-1 comprising amino acids 1-137 produced in human embryonic kidney cells (human) (UniProt P49763); assay: Format 2 …, capture MAb264, detection Pb264; sFlt-1 9200 pmol/L (ratio 300)
# [5] = biological target: human PlGF-1 comprising amino acids 1-137 produced in human embryonic kidney cells (human) (UniProt P49763); assay: Format 3 Quantikine ELISA, capture MAb264, detection Pb264; sFlt-1 1533 pmol/L (ratio 50)
# [6] = biological target: human PlGF-1 comprising amino acids 1-137 produced in human embryonic kidney cells (human) (UniProt P49763); assay: Format 2 …, capture MAb264, detection Pb264; sFlt-1 1227 pmol/L (ratio 40)
# [7] = biological target: T1, CHO human PlGF-1 comprising amino acids …; assay: … sandwich, capture MAb255, detection pAb264; antigen 250 pg/mL
# [8] = biological target: T2, CHO human PlGF-1 fragment (comprising …); assay: as above
# [9] = biological target: T3, human PlGF-1 comprising amino acids …; assay: as above
# [10] = biological target: T1, CHO human PlGF-1 comprising amino acids …; assay: … sandwich, capture MAb255, detection MAb826; antigen 15 pg/mL
# How it was run: (§1)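 In a sandwich immunoassay, human PlGF-1 antigen preparations, including recombinant forms expressed in CHO cells, were tested at 0 to 1500 pg/mL. Magnetic microparticles carried a monoclonal anti-human PlGF-1 capture antibody, attached by passive coating and EDAC cross-linking, and a second monoclonal anti-human PlGF-1 antibody labeled with acridinium ester served for detection. At each antigen level, the chemiluminescent signal was read in relative light units (RLU).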
# [11] = biological target: T4, human PlGF-1 fragment (comprising amino …); assay: as above
# How it was run: as §1
# [12] = biological target: T2, CHO human PlGF-1 fragment (comprising …); assay: as above
# How it was run: as §1
# [13] = biological target: T3, human PlGF-1 comprising amino acids …; assay: as above
# How it was run: as §1
# [14] = biological target: T1, CHO human PlGF-1 comprising amino acids …; assay: … sandwich, capture MAb255, detection MAb826; antigen 250 pg/mL
# How it was run: as §1
# [15] = biological target: T1, CHO human PlGF-1 comprising amino acids …; assay: … sandwich, capture MAb255, detection MAb826; antigen 750 pg/mL
# How it was run: as §1
# [16] = biological target: T4, human PlGF-1 fragment (comprising amino …); assay: as above
# How it was run: as §1
# [17] = biological target: T2, CHO human PlGF-1 fragment (comprising …); assay: as above
# How it was run: as §1
# [18] = biological target: T3, human PlGF-1 comprising amino acids …; assay: as above
# How it was run: as §1
molecule,measurement,setting,value
"native sFlt-1, isolated from human placental tissue (from UniProt P17948 27-687) (receptor)",% Inhibition,[1],80.9%
same,PlGF-1 Measured,[1],166 pg/mL
same,% Inhibition,[2],94.1%
same,PlGF-1 Measured,[2],60.3 pg/mL
same,% Inhibition,[3],82.2%
same,PlGF-1 Measured,[3],154 pg/mL
same,% Inhibition,[4],97.5%
same,PlGF-1 Measured,[4],20 pg/mL
same,% Inhibition,[5],52.1%
same,PlGF-1 Measured,[5],415 pg/mL
same,% Inhibition,[6],92.9%
same,PlGF-1 Measured,[6],55.5 pg/mL
B1,RLU,[7],226000 RLU
same,RLU,[8],283000 RLU
same,RLU,[9],559000 RLU
same,RLU,[10],14500 RLU
same,RLU,[11],17200 RLU
same,RLU,[12],13300 RLU
same,RLU,[13],26700 RLU
same,RLU,[14],153000 RLU
same,RLU,[15],400000 RLU
same,RLU,[16],576000 RLU
same,RLU,[17],395000 RLU
same,RLU,[18],890000 RLU

# — patent publication US20100015637A1 (AbbVie / Abbott, published 2010)
